Results on three molecules are retold here after patent US20250222127A1, “COMPOSITIONS AND METHODS FOR TREATING AND PREVENTING TRANSPLANT-ASSOCIATED INJURY” (MUSC Foundation For Research Development, priority 2016, published 2025).

The test system of one data set is allogeneic grafts. The data set is described as follows: Graft survival with B4-Crry and subtherapeutic tacrolimus. The data set is classed as in vivo. The method, then: FIG. 6 depicts the results of example experiments depicting the survival curve from B4-Crry and subtherapeutic tacrolimus.
Experiments were conducted to examine the effects of B4-Crry in combination with sub-therapeutic tacrolimus (also known as FK506). Tacrolimus was given at 1 mg/kg/day. […] Thus, untreated allogeneic grafts reject at the same extent as the subtherapeutic Tacrolimus treated animals. B4-Crry was given at 0 and 24 hours post-transplant and Tacrolimus was given at 1 mg/kg/day for the duration of the experiment (until full rejection of the graft).

Data set [1] addresses T1, annexin IV in post-ischemic mouse tissue (transplanted heart, brain-dead donor cardiac grafts, liver) (mouse, UniProt P97429 1-319, limits assumed).
T1 construct: The target was whole grafts or tissue
T1 sequence (looked up): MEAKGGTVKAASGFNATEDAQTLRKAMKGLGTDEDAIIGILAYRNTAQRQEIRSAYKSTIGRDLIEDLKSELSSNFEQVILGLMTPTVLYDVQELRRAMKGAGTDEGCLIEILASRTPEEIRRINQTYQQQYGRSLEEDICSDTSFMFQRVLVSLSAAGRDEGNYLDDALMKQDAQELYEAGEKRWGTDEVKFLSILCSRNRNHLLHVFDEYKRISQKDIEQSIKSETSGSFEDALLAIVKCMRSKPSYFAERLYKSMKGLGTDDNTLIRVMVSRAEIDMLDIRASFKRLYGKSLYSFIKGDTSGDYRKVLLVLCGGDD
Nature of the data set: perfusion of radiolabeled (125I) B4scFv-Crry through cardiac grafts of brain-dead or living donors, counted after flush. The method, then: FIG. 5 depicts the Binding of ¹²⁵I-B4-Crry after perfusion of grafts of BD (3 hours) or living donors. […] After 5 minutes, flush with 0.5 ml PBS, weigh and count.
In this experiment, B4scFv-Crry was administered to the donor hearts as a constituent of the UW preservation solution. […] The donor heart was then isolated and perfused with 0.5 mL ice cold UW or I¹²⁵-B4scFv-Crry via the proximal aortic arch.

For another data set, the system named is transplanted heart. Nature of the data set: Cardiac allograft transplant model (B4scFv targeting strategy). The data set is classed as in vivo, mice. The procedure:
(§1) A therapeutic strategy that exploited this post-ischemia recognition system of natural antibodies was then developed and characterized. Based on neoepitope identification, an anti-annexin-IV single chain antibody (B4scFv) and an scFv linked to Crry (B4scFv-Crry) was constructed. […] Further, post-ischemic expression of the B4scFv neoepitope has been observed in multiple tissues/organs in both mouse and humans. […] Liver biopsies were obtained from human donor livers following Tx and 1 hour reperfusion. […] Similar data was obtained with normal and ischemic brain samples obtained from stroke patients. Finally, it is shown herein that a decrease in anti-annexin IV Abs in human serum 24 hours after cardiac Tx as compared to pre-Tx levels (note that levels were not decreased in 2 patients, which is likely due to transfusion volume) (Table 1). […] In certain aspects, there may be benefits of a neoepitope vs. C3d targeting approach for protection against IRI in a transplant. […] Second, the targeting vehicle itself contributes to therapeutic activity by blocking the binding of complement activating pathogenic IgM, which in turn reduces the binding of Clq and MBL, which can impact inflammation, endothelial activation, cell trafficking, and Ag-presentation. Third, it is likely less immunosuppressive since not all sites of infection and C3 deposition will be targeted with complement inhibition.

Data set [2] deals with post-ischemic human brain. Nature of the data set: Binding to normal and ischemic brain samples from stroke patients. The method, then:
as §1

In another data set the target is T2, annexin IV (Homo sapiens, UniProt P09525).
T2 construct: Liver biopsies were obtained from human donor livers following Tx and 1 hour reperfusion; from tissue; host or cells: human donor liver biopsies after transplantation and 1 hour reperfusion
T2 sequence (P09525 2-319 limits assumed): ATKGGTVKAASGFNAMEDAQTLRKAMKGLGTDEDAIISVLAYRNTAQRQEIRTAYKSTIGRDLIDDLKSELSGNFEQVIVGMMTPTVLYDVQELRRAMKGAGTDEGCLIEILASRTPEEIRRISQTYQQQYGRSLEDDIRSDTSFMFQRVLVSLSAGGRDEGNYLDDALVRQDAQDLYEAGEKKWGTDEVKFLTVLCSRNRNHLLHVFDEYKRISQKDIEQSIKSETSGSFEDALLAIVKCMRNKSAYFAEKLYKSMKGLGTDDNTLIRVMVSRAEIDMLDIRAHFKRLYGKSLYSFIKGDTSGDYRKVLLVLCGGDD
The data set is described as follows: Immunohistochemistry of human donor liver biopsies following Tx and 1 hour reperfusion. Format: binding. The procedure:
as §1

A further data set deals with VC isografts. The data set is described as follows: Ischemia reperfusion injury of VC isografts, histology scoring of skin and muscle. Format: in vivo. The settings on record: VC isografts in treated wild type mice. The method, then:
Experiments were conducted to evaluate the effects of antibody-targeted complement inhibition on acute graft injury. VC isografts were transplanted into Rag −/− mice or wildtype mice. Mice were treated with PBS, B4 IgM mAb or B4-Crry. Isolated VCAs were stained and scored using a histology scoring system.

The mark [3] stands for this setting: allograft transplant model, recipients with full natural antibody repertoire.

In the case of `C=CC[C@@H]1/C=C(\C)C[C@H](C)C[C@H](OC)[C@H]2O[C@@](O)(C(=O)C(=O)N3CCCC[C@H]3C(=O)O[C@H](/C(C)=C/[C@@H]3CC[C@@H](O)[C@H](OC)C3)[C@H](C)[C@@H](O)CC1=O)[C@H](C)C[C@@H]2OC` [Tacrolimus, reference compound], the graft survival entry in the data set with allogeneic grafts (tacrolimus alone, 1 mg/kg/day (subtherapeutic)) is recorded as “does not prolong survival”.

B1: B4scFv-Crry (scFv)
chain: VKLQESGPELVKPGASVKISCKASGYTFTDYYMNWVKQSHGKSLEWIGDINPNNGGTSYNQKFKGKATLTVDKSSSTAYMELRSLTSEDSAVYYCARYDYAWYFDVWGQGTTVTVSSGGGGSGGGGSGGGGDVLMTQTPLSLPVSLGDQASISCRSSQSIVHSNGNTYLEWYLQKPGQSPKLLIYKVSNRFSGVPDRFSGSGSGTDFTLKISRVEAEDLGVYYCFQGSHVPYTFGGGTKLEIKRGGGGSGGGGSCPAPSQLPSAKPINLTDESMFPIGTYLLYECLPGYIKRQFSITCKQDSTWTSAEDKCIRKQCKTPSDPENGLVHVHTGIQFGSRINYTCNQGYRLIGSSSAVCVITDQSVDWDTEAPICEWIPCEIPPGIPNGDFFSSTREDFHYGMVVTYRCNTDARGKALFNLVGEPSLYCTSNDGEIGVWSGPPPQCIELNKCTPPPYVENAVMLSENRSLFSLRDIVEFRCHPGFIMKGASSVHCQSLNKWEPELPSCFKGVICRLPQEMSGFQKGLGMKKEYYYGENVTLECEDGYTLEGSSQSQCQSDGSWNPLLAKCVSRSIIEGRHHHHHH
modifications: 125I radiolabel in the graft perfusion experiment (position not given)
notes: also called B4-Crry; B4Crry
For the molecule B1, the “fold higher binding in BD vs. living donor grafts” value in data set [1] came out at 7 fold.

B2: B4scFv-Crry: anti-annexin-IV single chain antibody (B4scFv) linked to Crry; B4Crry amino acid sequence SEQ ID NO: 62 (protein)
chain: MSVPTQVLGLLLLWLTDARCVKLQESGPELVKPGASVKISCKASGYTFTDYYMNWVKQSHGKSLEWIGDINPNNGGTSYNQKFKGKATLTVDKSSSTAYMELRSLTSEDSAVYYCARYDYAWYFDVWGQGTTVTVSSGGGGSGGGGSGGGGDVLMTQTPLSLPVSLGDQASISCRSSQSIVHSNGNTYLEWYLQKPGQSPKLLIYKVSNRFSGVPDRFSGSGSGTDFTLKISRVEAEDLGVYYCFQGSHVPYTFGGGTKLEIKRGGGGSGGGGSCPAPSQLPSAKPINLTDESMFPIGTYLLYECLPGYIKRQFSITCKQDSTWTSAEDKCIRKQCKTPSDPENGLVHVHTGIQFGSRINYTCNQGYRLIGSSSAVCVITDQSVDWDTEAPICEWIPCEIPPGIPNGDFFSSTREDFHYGMVVTYRCNTDARGKALFNLVGEPSLYCTSNDGEIGVWSGPPPQCIELNKCTPPPYVENAVMLSENRSLFSLRDIVEFRCHPGFIMKGASSVHCQSLNKWEPELPSCFKGVICRLPQEMSGFQKGLGMKKEYYYGENVTLECEDGYTLEGSSQSQCQSDGSWNPLLAKCVSRSIIEGRHHHHHH
modifications: B4Crry amino acid sequence
On to B2, for which, in the data set with transplanted heart (allograft transplant model), the “cardiac graft inflammation and injury” value is “significantly reduced”. Also, in the data set on transplanted heart (setting [3]), the “complement activation in graft” value is “blocked” and the “graft IgM binding” value is “blocked”. For the same molecule, the “targeting to the transplanted heart” value in the data set with transplanted heart (cardiac Tx model) is reported as “specifically targeted to the transplanted heart”. In addition, in the data set with transplanted heart (compared with complement deficiency), the immunity to infection result is “did not affect immunity to infection”. The “binding to post-ischemic human brain” value in data set [2] was “directly bind”. Further, the “staining of biopsies obtained post-Tx” value in the data set with annexin IV (human liver biopsies post-Tx) is given as “stained biopsies obtained post-Tx”. Moreover, in the data set with annexin IV (normal human liver biopsies), the “staining of samples from normal biopsies” value is “not samples from normal biopsies”. The “binding to post-ischemic human liver” value with annexin IV (post-ischemic human liver) is given as “directly bind”. Further, in the data set with allogeneic grafts (B4-Crry at 0 and 24 hours post-transplant combined with tacrolimus 1 mg/kg/day, vs. tacrolimus alone), the graft survival result is listed as “significantly prolongs graft survival”. The “Ischemia reperfusion injury (skin and muscle histopathological score)” value in the data set with VC isografts is “protection from IRI”.
